Laboratory results taken from publication PMC10351726 (PLOS ONE, 2023).
Changes are numbered by the printed parent chain.

B1: NanoMab-02 (NM-02), HA- and His-tagged (VHH)
VHH: QVQLQESGGGSVQAGETLRLSCTASGFTFDDSDMGWYRQAPGNECELVSSISSDGSTYYADSVKGRFTISQDNAKNTVYLQMNSLKPEDTGVYYCAAEGHRYELGTCAALDYWGRGTQVTVSS
notes: camel (Camelus bactrianus) anti-HER2 single-domain antibody from a phage display library; In the ELISA and flow cytometry it was detected through the HA tag only; The microarray used the dual His6 + HA version (methods: 'either HA- and/or His-tagged'); also called dual tagged version of NM-02; duel-tagged NM-02
B2: humanised NM-02 variant M (VHH)
VHH: B1 VHH with S11L, A14P, E16G, T17S, T23S, A74S, K86R, P87A, Q118L
notes: humanised variant M of NM-02, with parental back mutations; source: ExpiCHO-S, transiently transfected, purified (HisTrap Excel, SEC)
B3: humanised NM-02 variant H (VHH)
VHH: B1 VHH with A14P, E16G, T17S, T23S, A74S, V78L, K86R, P87A, G91A, Q118L
notes: humanised variant H of NM-02, with parental back mutations; source: ExpiCHO-S, transiently transfected, purified (HisTrap Excel, SEC)
B4: humanised NM-02 variant D (VHH)
VHH: B1 VHH with S11L, A14P, E16G, T17S, T23A, A74S, V78L, K86R, P87A, Q118L
notes: humanised variant D of NM-02; source: ExpiCHO-S, transiently transfected, purified (HisTrap Excel, SEC)
B5: humanised NM-02 variant N (VHH)
VHH: B1 VHH with S11L, A14P, E16G, T17S, T23S, A74S, V78L, K86R, Q118L
notes: humanised variant N of NM-02, with parental back mutations; source: ExpiCHO-S, transiently transfected, purified (HisTrap Excel, SEC)
B6: humanised NM-02 variant B (VHH)
VHH: B1 VHH with S11L, A14P, T23A, A74S, V78L, K86R, P87A, Q118L
notes: humanised variant B of NM-02; source: ExpiCHO-S, transiently transfected, purified (HisTrap Excel, SEC)
B7: humanised NM-02 variant L (VHH)
VHH: B1 VHH with S11L, A14P, E16G, T17S, T23S, V78L, K86R, P87A, Q118L
notes: humanised variant L of NM-02, with parental back mutations; source: ExpiCHO-S, transiently transfected, purified (HisTrap Excel, SEC)
B8: NanoMab-02 (NM-02) (VHH)
VHH: B1 VHH
notes: camel (Camelus bactrianus) anti-HER2 single-domain antibody; residues Gln3 to Ser123 modelled in the structure; The humanised variants were made in ExpiCHO-S with a C-terminal GSG-His tag, and the parent run beside them may have the same format; also called parent; wild type NM-02
B9: humanised NM-02 variant I (VHH)
VHH: B1 VHH with S11L, A14P, E16G, T17S, T23S, A74S, V78L, K86R, P87A
notes: humanised variant I of NM-02, with parental back mutations; source: ExpiCHO-S, transiently transfected, purified (HisTrap Excel, SEC)
B10: humanised NM-02 variant E (VHH)
VHH: B1 VHH with S11L, A14P, E16G, T17S, T23S, A74S, V78L, K86R, P87A, Q118L
notes: humanised variant E of NM-02, 83.5% human identity; also called mid-humanised candidate; source: ExpiCHO-S, transiently transfected, purified (HisTrap Excel, SEC)
B11: humanised NM-02 variant J (VHH)
VHH: B1 VHH with A14P, E16G, T17S, T23S, A74S, V78L, K86R, P87A
notes: humanised variant J of NM-02, with parental back mutations; source: ExpiCHO-S, transiently transfected, purified (HisTrap Excel, SEC)
B12: lead humanised NM-02 candidate (variant K) (VHH)
VHH: B1 VHH with S11L, A14P, E16G, T17S, A74S, V78L, K86R, P87A, Q118L
notes: humanised variant K of NM-02, 82.5% human identity; also called humanised variant K; humanised lead; source: ExpiCHO-S, transiently transfected, purified (HisTrap Excel, SEC); not shown: His-tag (with short GSG linker), C-terminal, kept
B13: humanised NM-02 variant G (VHH)
VHH: B1 VHH with S11L, A14P, E16G, T17S, T23S, A74S, V78L, K86R, P87A, G91A
notes: humanised variant G of NM-02, with parental back mutations; source: ExpiCHO-S, transiently transfected, purified (HisTrap Excel, SEC)
B14: humanised NM-02 variant F (VHH)
VHH: QVQLQESGGGLVQPGGSLRLSCSASGFTFDDSDMGWYRQAPGNECELVSSISSDGSTYYADSVKGRFTISQDNSKNTLYLQMNSLRAEDTAVYYCAAEGHRYELGTCAALDYWGRGTLVTVSS
notes: humanised variant F of NM-02; source: ExpiCHO-S, transiently transfected, purified (HisTrap Excel, SEC)

Key:
Conditions in all cases: both partners purified
[1] = biological target: T1, human HER2-ECD-Fc (Homo sapiens, UniProt P04626); assay: ELISA; microplates coated with human or mouse HER2-ECD-Fc, blocked with 1% BSA at room temperature; NM-02 serially diluted from 160 nM; detected with mouse anti-HA and anti-mouse IgG-alkaline phosphatase
T1 construct: human epidermal growth factor receptor-2 (HER2), extracellular domain; The supplier is named only for the cross-reactivity ELISA; also called recombinant human HER2-Fc; recombinant human HER2-ECD; source: bought: R&D systems

[2] = biological target: T2, mouse HER2-ECD-Fc (Mus musculus, UniProt P70424); assay: as above
T2 construct: mouse HER2 (ErbB2), extracellular domain; also called murine HER2-ECD; recombinant murine HER2-ECD; source: bought: R&D systems
T2 sequence (P70424 23-653): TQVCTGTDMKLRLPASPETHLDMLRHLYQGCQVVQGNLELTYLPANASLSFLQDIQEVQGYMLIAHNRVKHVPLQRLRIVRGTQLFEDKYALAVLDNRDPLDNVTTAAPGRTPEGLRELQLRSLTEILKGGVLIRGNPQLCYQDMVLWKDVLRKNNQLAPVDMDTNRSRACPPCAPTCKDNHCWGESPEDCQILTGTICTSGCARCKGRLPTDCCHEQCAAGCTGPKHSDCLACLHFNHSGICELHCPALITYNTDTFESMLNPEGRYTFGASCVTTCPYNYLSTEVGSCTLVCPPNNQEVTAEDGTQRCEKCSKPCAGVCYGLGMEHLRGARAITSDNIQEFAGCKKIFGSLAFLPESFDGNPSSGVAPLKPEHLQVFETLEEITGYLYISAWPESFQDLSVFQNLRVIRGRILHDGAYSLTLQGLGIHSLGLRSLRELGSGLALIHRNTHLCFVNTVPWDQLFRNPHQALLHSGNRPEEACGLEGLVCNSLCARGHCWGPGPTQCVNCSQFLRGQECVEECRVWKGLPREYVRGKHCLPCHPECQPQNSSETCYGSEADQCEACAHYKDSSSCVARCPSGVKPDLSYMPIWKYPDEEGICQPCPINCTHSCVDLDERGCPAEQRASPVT

[3] = biological target: T3, HER2-ECD biotinylated at single site (Homo sapiens, UniProt P04626, biotinylated at single site); assay: SPR; Biacore 8K; biotinylated HER2-ECD on a streptavidin chip; sdAbs injected in multi-cycle kinetics, 2-fold dilution series from 5 nM; 100 μL/min, 25°C, HBS-EP+ pH 7.4; 1:1 model
T3 construct: human HER2 extracellular domain; also called ECD of HER2; source: bought: Sino Biological

[4] = biological target: T1, human HER2-ECD-Fc; assay: ELISA; recombinant human HER2-Fc (1 μg/mL) coated on a MaxiSorp plate; His-tagged sdAb pre-incubated 7 days at 37°C in human, mouse or cynomolgus serum or PBS, then serially diluted; detected with anti-HIS-HRP

Binder | binding result [3] | further results
B1 |  | EC50 [1]: 1200 pM; binding result [2]: no binding (tested: 160 nM)
B2 | binds | 
B3 | binds | 
B4 | binds | 
B5 | binds | 
B6 | binds | 
B7 | binds | 
B8 |  | Kd [3]: ~200 pM
B9 | binds | 
B10 | binds | 
B11 | binds | 
B12 |  | Kd [3]: 212 pM; fold more potent than variant E [3]: ≥ 2 fold; fold drop-off of activity after 7 days at 37°C in human serum versus PBS [4]: 1.5 fold
B13 | binds | 
B14 | binds | 
